According to US20210163923A1:

Target: Heat inactivated human AB serum labelled with Dylight 633 (human)
Test: flow cytometry, IgG displayed on HEK293 cells, anti-Fc PE and Dylight 633 labelled human AB serum

Row | % cells double positive for antibody and human serum binding | Substance
1 | 3.7% | Nivolumab displayed from pINT17-BSD (antibody)
2 | 12.3% | Vesencumab (antibody)
